Test results from publication PMC2241861.

T1: TWINKLE wt (lacks mitochondrial targeting sequence 1-42) (human, UniProt Q96RR1 43-684)
T1 sequence: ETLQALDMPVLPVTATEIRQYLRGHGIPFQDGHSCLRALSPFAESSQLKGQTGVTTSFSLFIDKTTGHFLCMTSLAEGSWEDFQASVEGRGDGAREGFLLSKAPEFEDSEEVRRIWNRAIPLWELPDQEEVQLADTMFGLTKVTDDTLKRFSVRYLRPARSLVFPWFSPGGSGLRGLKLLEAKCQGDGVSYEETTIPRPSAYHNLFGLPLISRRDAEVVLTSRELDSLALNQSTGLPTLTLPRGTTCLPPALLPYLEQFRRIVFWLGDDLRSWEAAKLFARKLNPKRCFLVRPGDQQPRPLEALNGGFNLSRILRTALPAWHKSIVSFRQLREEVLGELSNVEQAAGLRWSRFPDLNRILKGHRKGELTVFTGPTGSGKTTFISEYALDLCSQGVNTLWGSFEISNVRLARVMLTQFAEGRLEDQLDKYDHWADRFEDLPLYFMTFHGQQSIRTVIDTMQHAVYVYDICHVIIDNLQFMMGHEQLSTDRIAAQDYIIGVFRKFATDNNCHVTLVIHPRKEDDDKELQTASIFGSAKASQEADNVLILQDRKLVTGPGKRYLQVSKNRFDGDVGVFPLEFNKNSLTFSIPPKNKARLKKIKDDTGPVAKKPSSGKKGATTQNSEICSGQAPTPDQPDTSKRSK

T2: TWINKLE Δ372-684 (human, UniProt Q96RR1 43-371, del372-684)
T2 sequence: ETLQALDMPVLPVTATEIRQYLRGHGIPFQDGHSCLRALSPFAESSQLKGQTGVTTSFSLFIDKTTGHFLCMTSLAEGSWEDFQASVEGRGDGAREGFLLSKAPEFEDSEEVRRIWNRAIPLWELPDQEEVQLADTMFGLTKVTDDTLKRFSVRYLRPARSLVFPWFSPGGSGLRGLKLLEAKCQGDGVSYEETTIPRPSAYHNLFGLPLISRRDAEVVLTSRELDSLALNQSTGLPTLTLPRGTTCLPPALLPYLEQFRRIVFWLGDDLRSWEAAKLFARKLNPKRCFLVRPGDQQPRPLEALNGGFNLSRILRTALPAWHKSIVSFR

T3: TWINKY (human, UniProt Q96RR1-2 43-582, del579-684)
T3 sequence: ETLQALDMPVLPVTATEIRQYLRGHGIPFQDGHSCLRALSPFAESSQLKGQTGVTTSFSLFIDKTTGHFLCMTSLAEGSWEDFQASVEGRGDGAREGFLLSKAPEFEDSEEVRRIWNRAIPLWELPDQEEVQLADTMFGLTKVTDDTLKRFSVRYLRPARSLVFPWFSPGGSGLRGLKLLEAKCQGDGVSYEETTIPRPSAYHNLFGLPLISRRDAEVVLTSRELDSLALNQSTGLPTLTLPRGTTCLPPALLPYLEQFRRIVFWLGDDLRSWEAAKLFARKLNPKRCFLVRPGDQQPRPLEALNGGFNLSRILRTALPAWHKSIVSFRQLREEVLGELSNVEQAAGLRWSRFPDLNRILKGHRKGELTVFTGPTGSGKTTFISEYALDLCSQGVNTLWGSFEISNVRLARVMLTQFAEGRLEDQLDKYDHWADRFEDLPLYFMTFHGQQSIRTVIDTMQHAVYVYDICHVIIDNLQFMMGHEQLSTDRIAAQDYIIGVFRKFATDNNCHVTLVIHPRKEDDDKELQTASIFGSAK

T4: TWINKLE Δ1-121 (human, UniProt Q96RR1 122-684, del1-121)
T4 sequence: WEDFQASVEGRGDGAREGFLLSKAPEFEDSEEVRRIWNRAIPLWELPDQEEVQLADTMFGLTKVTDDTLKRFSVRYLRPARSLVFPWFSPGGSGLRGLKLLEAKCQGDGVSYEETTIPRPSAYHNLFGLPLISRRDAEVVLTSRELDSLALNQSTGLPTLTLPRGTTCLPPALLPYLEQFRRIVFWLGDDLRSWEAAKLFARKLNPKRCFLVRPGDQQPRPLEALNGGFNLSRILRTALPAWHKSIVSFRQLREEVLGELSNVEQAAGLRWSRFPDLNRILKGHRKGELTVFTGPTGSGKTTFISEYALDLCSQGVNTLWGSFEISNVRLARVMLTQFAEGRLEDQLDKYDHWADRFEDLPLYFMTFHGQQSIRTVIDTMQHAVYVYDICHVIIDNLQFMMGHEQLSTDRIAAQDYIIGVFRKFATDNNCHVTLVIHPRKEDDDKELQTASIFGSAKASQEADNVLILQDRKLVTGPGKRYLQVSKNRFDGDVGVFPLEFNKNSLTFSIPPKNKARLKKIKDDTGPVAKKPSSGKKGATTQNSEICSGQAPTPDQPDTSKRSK

B1: ds30 (dsDNA)
DNA 1: TGGCACGACAGGTTTCCCGACTGGAAAGCG
DNA 2: CGCTTTCCAGTCGGGAAACCTGTCGTGCCA
B2: ds45 (dsDNA)
DNA 1: TGGCACGACAGGTTTCCCGACTGGAAAGCGGGCAGTCAGCTCTAG
DNA 2: CTAGAGCTGACTGCCCGCTTTCCAGTCGGGAAACCTGTCGTGCCA
B3: ds15 (dsDNA)
DNA 1: CTCTAGACTCGACCG
DNA 2: CGGTCGAGTCTAGAG

Key:
Experiment in all cases: EMSA
[1] = biological target: T1, TWINKLE wt (lacks mitochondrial …)
[2] = biological target: T2, TWINKLE Δ372-684
[3] = biological target: T3, TWINKY
[4] = biological target: T1, TWINKLE wt (lacks mitochondrial …); remark: listed apart in the source
[5] = biological target: T4, TWINKLE Δ1-121

Binder	binding result [1]	binding result [2]	binding result [3]	Kd [4]	binding result [5]
TTTTTTTTTTTTTTTTTTTTTTTTTTTTTTTTTTTTTTTTTTTTT (ssDNA) [ss45 poly-dT]	binds	–	–	–	–
TTTTTTTTTTTTTTT (ssDNA) [ss15 poly-dT]	no binding	–	–	–	–
TTTTTTTTTTTTTTTTTTTTTTTTTTTTTT (ssDNA) [ss30 poly-dT]	–	no binding	no binding	~5 nM	–
B1	–	no binding	no binding	~5 nM	binds
B2	binds	–	–	–	–
B3	binds	–	–	–	–
